Assay results: paper PMC13544220, “Glycemic and bodyweight effects of GIPR coding variation reflect differences in surface expression and intrinsic functional impairment” (Science Advances, 2026)

Experiments:
Type in all cases: cell-based, human
[1] = system: wild-type and variant SNAP-GIPR; test: cADDis cAMP imaging in AD293 cells, ensemble, expression-matched and per decile; conditions: Fig S3F, cADDis, mean;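 also: Ensemble cells as % of IBMX/FSK response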
Method in brief: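 Surface GIPR and cAMP are measured in individual AD293 cells coexpressing SNAP-tagged receptor and the green cADDis biosensor, imaged live at 37°C. Responses are reported ensemble, expression-matched against wild-type deciles with extremes trimmed, or within each variant's own surface deciles.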

[2] = system: wild-type and variant SNAP-GIPR; test: Constitutive and agonist-mediated internalization, reversible SNAP-tag labelling, AD293 cells; design: key to Internalisation, Vehicle / Internalisation, +GIP / Internalisation, GIP-only: % internalization: residual fluorescence after Mesna vs pre-Mesna; Surface expression: unit not given here; conditions: Mean
Method in brief: (§1)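 Percentage internalization calculated as specific SNAP fluorescence remaining after 10 min Mesna exposure, relative to pre-Mesna signal, imaged in TNE buffer (pH 8.6).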

[3] = system: wild-type and variant SNAP-GIPR; test: Surface SNAP-GIPR expression (SNAP-tag labelling) in AD293 cells; conditions: for AD293 Surface: Fig S3E, mean; for Surface SNAP-GIPR expression: sheet Fig 1C;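 as to all read-outs here: scaled to the experimental average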
Method in brief: (§2)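 Read-out: whole-cell fluorescence of surface-only SNAP label (Alexa Fluor 647, 500 nM, 10 min, RT), wide-field 20X, several FOVs per well. Flat-field corrected, phase-contrast masked, nontransfected-well signal subtracted; normalized to experiment mean or wild-type.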

[4] = system: wild-type and variant SNAP-GIPR; test: Single-concentration GIP cAMP response by HTRF in INS-1 cells; conditions: Fig S3E, mean
Method: (§3) All variants were tested in parallel on each occasion to control for transfection efficiency differences between experiments.

[5] = system: wild-type and variant SNAP-GIPR; test: Surface SNAP-GIPR expression (SNAP-tag labelling) in INS-1 cells; conditions: Fig 4G; Mean
Method in brief: as §2

[6] = system: wild-type and variant SNAP-GIPR; test: Constitutive and agonist-mediated internalization, reversible SNAP-tag labelling, INS-1 cells; design: key to Internalisation, GIP-only / Internalisation, Vehicle / Internalisation, +GIP: % internalization: residual fluorescence after Mesna vs pre-Mesna; conditions: Mean
Method in brief: as §1

[7] = system: wild-type and variant SNAP-GIPR; test: Single-concentration GIP cAMP response by HTRF in AD293 cells; conditions: Fig S3F, HTRF, mean;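 also: ratio to experiment-wide average response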
Method: as §3

B1: T116R (protein, UniProt P48546 22-466, looked up, variant T116R)
Gastric inhibitory …: RAETGSKGQTAGELYQRWERYRRECQETLAAAEPPSGLACNGSFDMYVCWDYAAPNATARASCPWYLPWHHHVAAGFVLRQCGSDGQWGLWRDHRQCENPEKNEAFLDQRLILERLQVMYTVGYSLSLATLLLALLILSLFRRLHCTRNYIHINLFTSFMLRAAAILSRDRLLPRPGPYLGDQALALWNQALAACRTAQIVTQYCVGANYTWLLVEGVYLHSLLVLVGGSEEGHFRYYLLLGWGAPALFVIPWVIVRYLYENTQCWERNEVKAIWWIIRTPILMTILINFLIFIRILGILLSKLRTRQMRCRDYRLRLARSTLTLVPLLGVHEVVFAPVTEEQARGALRFAKLGFEIFLSSFQGFLVSVLYCFINKEVQSEIRRGWHHCRLRRSLGEEQRQLPERAFRALPSGSGPGEVPTSRGLSSGTLPGPGNEASRELESYC
[1]; AD293, 100 pM
  AD293 100 pM cADDis: 33.6456
[1]; AD293, 100 nM
  AD293 100 nM cADDis: 38.18
[2]; Fig 4E, GIP 100 nM
  +GIP internalisation (100 nM): 0.9677
  GIP-specific internalisation (100 nM): 0.2939
[2]; Fig 4E
  Constitutive internalisation (100 nM): 0.6738
  Surface expression: 1.687
[2]; Fig S4C, AD293
  Internalisation, +GIP: 57.3525
  Internalisation, GIP-only: 17.4551
  Internalisation, Vehicle: 39.8973
[3]; column repeated, paired with cAMP 100 nM
  AD293 Surface: 1.324
[3]; paired with cAMP 100 pM
  AD293 Surface: 1.324
[3]; replicate 1
  Surface SNAP-GIPR expression: 1.245
[3]; replicate 2
  Surface SNAP-GIPR expression: 1.023
[3]; replicate 3
  Surface SNAP-GIPR expression: 0.6735
[3]; replicate 4
  Surface SNAP-GIPR expression: 1.28
[3]; replicate 5
  Surface SNAP-GIPR expression: 0.9777
[3]; replicate 6
  Surface SNAP-GIPR expression: 1.324
[3]; replicate 7
  Surface SNAP-GIPR expression: 1.095
[3]; replicate 8
  Surface SNAP-GIPR expression: 1.165
[3]; replicate 9
  Surface SNAP-GIPR expression: 1.067
[3]; replicate 10
  Surface SNAP-GIPR expression: 1.216
[3]; replicate 11
  Surface SNAP-GIPR expression: 0.8978
[3]; replicate 12
  Surface SNAP-GIPR expression: 1.007
[3]; replicate 13
  Surface SNAP-GIPR expression: 1.293
[3]; replicate 14
  Surface SNAP-GIPR expression: 1.058
[3]; replicate 15
  Surface SNAP-GIPR expression: 1.321
[3]; replicate 16
  Surface SNAP-GIPR expression: 1.079
[3]; replicate 17
  Surface SNAP-GIPR expression: 1.526
[3]; replicate 18
  Surface SNAP-GIPR expression: 1.463
[3]; replicate 19
  Surface SNAP-GIPR expression: 1.041
[3]; replicate 20
  Surface SNAP-GIPR expression: 1.229
[3]; replicate 21
  Surface SNAP-GIPR expression: 1.037
[3]; replicate 22
  Surface SNAP-GIPR expression: 1.307
[3]; replicate 23
  Surface SNAP-GIPR expression: 1.273
[3]; replicate 24
  Surface SNAP-GIPR expression: 1.448
[3]; replicate 25
  Surface SNAP-GIPR expression: 1.438
[3]; replicate 26
  Surface SNAP-GIPR expression: 1.564
[3]; replicate 27
  Surface SNAP-GIPR expression: 1.467
[3]; replicate 28
  Surface SNAP-GIPR expression: 1.252
[3]; replicate 29
  Surface SNAP-GIPR expression: 1.566
[3]; replicate 30
  Surface SNAP-GIPR expression: 1.334
[3]; replicate 31
  Surface SNAP-GIPR expression: 1.686
[3]; replicate 32
  Surface SNAP-GIPR expression: 1.692
[3]; replicate 33
  Surface SNAP-GIPR expression: 1.307
[3]; replicate 34
  Surface SNAP-GIPR expression: 1.109
[3]; replicate 35
  Surface SNAP-GIPR expression: 1.705
[3]; replicate 36
  Surface SNAP-GIPR expression: 1.374
[3]; replicate 37
  Surface SNAP-GIPR expression: 1.911
[3]; replicate 38
  Surface SNAP-GIPR expression: 1.787
[3]; replicate 39
  Surface SNAP-GIPR expression: 1.944
[3]; replicate 40
  Surface SNAP-GIPR expression: 1.676
[3]; replicate 41
  Surface SNAP-GIPR expression: 1.421
[4]
  INS-1 cAMP (100 nM): 1.507
[5]
  Surface expression: 1.428
[6]; Fig 4G, GIP 100 nM
  +GIP internalisation (100 nM): 0.7228
  GIP-specific internalisation (100 nM): 0.1652
[6]; Fig 4G
  Constitutive internalisation (100 nM): 0.5577
[6]; Fig S4C, INS-1
  Internalisation, +GIP: 48.6183
  Internalisation, GIP-only: 11.125
  Internalisation, Vehicle: 37.4933
[7]; AD293, 100 pM
  AD293 100 pM HTRF: 0.9665
[7]; AD293, 100 nM
  AD293 100 nM HTRF: 1.485
